The nature of the data set: soluble fraction after stress (log2 fold change); higher = more stays soluble; pooled small domains, quantitative proteomics. Conditions: stress: 50 degC. Summed up: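 Pooled custom libraries of small protein domains were each held under stress at 50°C. The read-out, high-throughput quantitative proteomics, tracked how much of each protein stayed soluble. This is reported as a base-two log fold change used to indicate aggregation propensity. Higher values mean more protein remains in solution.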
Consider “HMNDVLVGAIPESASGSRLDKVMPSVFPPYSRSQLQVWLKQGRILMGNGIPSPRLIVSGGEVLSLVVPELP”, for which the “soluble fraction (log2)” value is -0.971.

For the sequence “HMSTFAQNLRALMEKRGVSQNELARSAGLTQSAINKILTGKTKQPGIDTTEAIARVLNVSVAQLIYT”, the “soluble fraction (log2)” value is -0.303.

As to “HMLAIKKGGIFAILGPNGSGKSTFSKVLAGHPAYTVVDGDIFFKGLSILDLEPEERSHLGIFLAFQ”, the “soluble fraction (log2)” value is -0.153.

As for “HMKLSALRDKIKEHLLRQIQNGELQVGKTINLAALSRVTGISVTPIREALTQLEQAQVIQAVPNRGFVVA”, the “soluble fraction (log2)” value came out at 0.00526.

On to “HMSKQQVRSILDDIPNIGETRRKALMRQFQSLEKIREASVGQLREVDGMNEKAAQSVYQFFHK”, for which the “soluble fraction (log2)” value was -0.0486.

Consider “HMAGTAMRATTAVNVRSGAGTNYSRIGLLQAGEQIQALSSKNGWTQVSYKGRTGYVASAYLASL”, for which the “soluble fraction (log2)” value is -0.309.

Consider “HMPAKIIKKSFVYNPIHRDTEYLAQFLQGEGQVSASGDKLVYYGTVEDISRIKSVLQSVDTPS”, for which the “soluble fraction (log2)” value was found to be 0.0363.

In the case of “HMEGIAEILPASVRQKYGLIGLYDALRGLHFPGNMEEIKAARQRLAFEDTLMFSLTLSMMQYS”, the “soluble fraction (log2)” value is -0.0198.

Take “HMTSMNNTEELIDMANKIIDNNPNMVLKYKEGRNVLDFFIGQVMKETKGRANPSATSKIFKDLLEK”: the “soluble fraction (log2)” value was found to be 0.169.

In the case of “HMPMNISDIIKQAREELGMTQEDLAERLEVSRQAVSKWELGASVPSPENLRLLEELLGVELPAP”, the “soluble fraction (log2)” value is -0.0297.

In the case of “HMNTKLKPLYLLDIFREMTDERHRMTVPELLEELQRRGITAERKGIYRDIDALIQYGADIKHTGTGYYLAR”, the “soluble fraction (log2)” value was -0.561.

“HMHLTNIPKGFTPSFDTKQWIVEEFGERYNYDNELKIFINHYRASGTTKSDWQYAFRSWLLRAKKFT”: the “soluble fraction (log2)” value was -2.32.

Consider “HMDEVLDQFVRGQIYGYIRANPGDIYSSIRDNLGLKNGVTTYHLDVLAREEYVYSEIDGTNRRFYPSGWEE”, for which the “soluble fraction (log2)” value was -3.2.

Consider “HMSINTIIAKNLNRLRNERNLSLGQLAELSGVSKVMLSQIEKGDSNPTVNTIWKIASGLNVPYTAILDQP”, for which the “soluble fraction (log2)” value is -0.0848.

Regarding “HMGYKDIDKLSGVDLAIYRFIVEHDEQIPYMRVRELARGAHVSNSSVMRFIRKIGYDSFPEFKVSLRS”, the “soluble fraction (log2)” value came out at 0.0102.

For the sequence “HMDLIFQKGDLVFSTEHNQRGIFYEYLEQGQAKISIEKQFFVVAARRLQLLTKREVLYPAGYDLDQLFV”, the “soluble fraction (log2)” value was -0.0465.

In the case of “HMGFVATRSRKFLPFSEARAITRGLGFSNQKDYKEWIKGNGNELLLPFNPWRTYGDSGWKGWKDFLGTDKA”, the “soluble fraction (log2)” value is -1.03.

As to “HMKIHNSIREITDFDRKQNSNIPSDAKYRIVFYTPQGNKTIIPEELQGLQYYRSKELAEIALNKKLNSN”, the “soluble fraction (log2)” value is -0.132.

“HMRNQIRAVITPVPNQERYTVEMTIDDDAGNLLTLQMAAPDRQQAAEFAQRFQKHPEALYHAVLSVLL”: the “soluble fraction (log2)” value was 0.0702.

Consider “HMEQFDFTILRELRKRAGLSIGEVSAESGVSAAVISKLERNRTRAELDTLYRLARVFGITAAELLNLAEA”, for which the “soluble fraction (log2)” value is -2.06.

As for “HMSEYLDIHMAMEKLNRKEQLFVHLRFYEGLTQSEIAQRLFTSQVQISRLEKSVLEKMRQILSK”, the “soluble fraction (log2)” value is -1.34.

With “HMAFDYETYQLTSREFSIIELVADGRSNREIAEALYLGEGTVRNYLSSILEKLELRDRTQLAVFFYQHL”, the “soluble fraction (log2)” value was -2.3.

“HMGQISLSVNAIPEKAEVILDGNSIGNTPIRKNTITPGSHMFEIEKKGYAPISYDIYVNPSKAINLDFFM”: the “soluble fraction (log2)” value was -0.63.

For the sequence “HMEGSLQEDKVKEYQDRFKEELSNDLNTANSITVLYDLIKDDTLNGTTKRYLIEDFDKILSLDLIKE”, the “soluble fraction (log2)” value stood at 0.0632.

With “HMPMDYFELFNIPRNANRETIKKILDQEYEKYRARVVSPVLEIRHEAELMLVEISKAKQVLLG”, the “soluble fraction (log2)” value came to 0.111.

As to “HMDTIYPFNPNFIDDYKGYVLGLNTNEIDRLLKYRSKGNWINSAEDFKKVTGIDDALLNKLSKSFKFPDWL”, the “soluble fraction (log2)” value was -1.44.

As to “HMISTVFYVDVKGEVHHPGVYQMKAENRVKDLIEAAGGFTPLADDQKLNLAQLLEDQMVIVVPKKGEEV”, the “soluble fraction (log2)” value came to 0.278.

As for “HMLLPANLTKSQRNIAERVARGQSNLEIAADLNITERTVKAHLTSIYEKTKTGNRLNLALLINLG”, the “soluble fraction (log2)” value is -0.442.

The values are drawn from the domain aggregation screens of Martell et al. (2025).
